Patent US20240117022A1 (GANYMED PHARMACEUTICALS, published 2024)
Blank lines part the entries; values can stand above or below the binder they belong to.

Key:
human CLD18A1 [1] = target: T1, human CLD18A1 (human, UniProt P56856 1-261); experiment: flow cytometry on HEK293-CLD18A1 cells
T1 construct: Expressed on transfected HEK293 or CHO cells; also called claudin 18 splice variant 1; NP_057453

human CLD18A1 [2] = target: T1, human CLD18A1; experiment: summary of Example 10
murine CLD18A1 [3] = target: T2, murine CLD18A1 (mouse, UniProt P56857 1-264); experiment: summary of Example 10
T2 construct: Transiently expressed on HEK293 cells; also called mouse CLD18A1; NP_062789

human CLD18A1 [4] = target: T1, human CLD18A1; experiment: overview table of murine antibodies
murine CLD18A1 [5] = target: T2, murine CLD18A1; experiment: overview table of murine antibodies
human CLD18A1 [6] = target: T1, human CLD18A1; experiment: overview table of chimeric antibodies

binding result (human CLD18A1 [1]): no binding
B1: ch-43A11 (antibody, V domains shown)
VH: QVQLQQSGAELMKPGASVKISCKATGYTFSSYWIEWVKQRPGHGLEWIGEILPGSGSTNYNEKFKGKATFTADTSSNTAYMQLSSLTSEDSAVYYCARYDYPWFAYWGQGTLVTVSA
VL: QIVLTQSPAIMSASPGEKVTITCSASSSVSYMHWFQQKPGTSPKLWIYSTSNLASGVPARFSGSGSGTSYSLTISRMEAEDAATYYCQQRSSYPPTFGGGTKLEIKR
notes: Mouse/human chimeric, human gamma-1 and kappa constant regions; also called chimeric 43A11

binding result (human CLD18A1 [2]): no binding
B2: 43A11 (antibody, IgG2a, V domains shown)
VH: B1 VH
VL: QIVLTQSPAIMSASPGEKVTITCSASSSVSYMHWFQQKPGTSPKLWIYSTSNLASGVPARFSGSGSGTSYSLTISRMEAEDAATYYCQQRSSYPPTFGGGTKLEIK
notes: mouse monoclonal IgG2a, kappa; also called 182-D1106-062; DSM ACC2742

binding result (human CLD18A1 [1]): no binding
B3: ch-166E2 (antibody, V domains shown)
VH: QVQLQQSGPELVKPGASVKMSCKASGYTFTDYVISWVKQRTGQGLEWIGEIYPGSGSTYYNEKFKGKATLTADKSSNTAYMQLSSLTSEDSAVYFCARGVLLRAMDYWGQGTSVTVSS
VL: DIVMSQSPSSLAVSAGEKVTMSCKSSQSLLNSRTRKNYLAWYQQKPGQSPKLLIYWASTRESGVPDRFTGSGSGTDFTLTISSVQAEDLAVYYCKQSYNLYTFGGGTKLEIKR
notes: Mouse/human chimeric, human gamma-1 and kappa constant regions; also called chimeric 166E2

binding result (human CLD18A1 [2]): no binding | binding result (murine CLD18A1 [3]): no binding
B4: 166E2 (antibody, IgG3, V domains shown)
VH: B3 VH
VL: DIVMSQSPSSLAVSAGEKVTMSCKSSQSLLNSRTRKNYLAWYQQKPGQSPKLLIYWASTRESGVPDRFTGSGSGTDFTLTISSVQAEDLAVYYCKQSYNLYTFGGGTKLEIK
notes: mouse monoclonal IgG3, kappa; also called 182-D1106-308

binding result (human CLD18A1 [4]): no binding | binding result (murine CLD18A1 [5]): no binding
B5: 163E12 (antibody, IgG3, V domains shown)
VH: QIQLVQSGPELKKPGETVKISCKASGYTFTNYGMNWVKQAPGKGLKWMGWINTNTGEPTYAEEFKGRFAFSLETSASTAYLQINNLKNEDTATYFCARLGFGNAMDYWGQGTSVTVSS
VL: DIVMTQSPSSLTVTAGEKVTMSCKSSQSLLNSGNQKNYLTWYQQKPGQPPKLLIYWASTRESGVPDRFTGSGSGTDFTLTISSVQAEDLAVYYCQNDYSYPLTFGAGTKLELK
notes: mouse monoclonal IgG3, kappa; also called 182-D1106-294; DSM ACC2809

binding result (human CLD18A1 [6]): no binding
B6: ch-163E12 (antibody, V domains shown)
VH: B5 VH
VL: DIVMTQSPSSLTVTAGEKVTMSCKSSQSLLNSGNQKNYLTWYQQKPGQPPKLLIYWASTRESGVPDRFTGSGSGTDFTLTISSVQAEDLAVYYCQNDYSYPLTFGAGTKLELKR
notes: Mouse/human chimeric, human gamma-1 and kappa constant regions; also called chimeric 163E12

binding result (human CLD18A1 [4]): no binding | binding result (murine CLD18A1 [5]): no binding
B7: 125E1 (antibody, IgG2a, V domains shown)
VH: QVQLQQSGAELARPGASVKLSCKASGYTFTDYYINWVKQRTGQGLEWIGEIYPGSGNTYYNEKFKGKATLTADKSSSTAYMQLSSLTSEDSAVYFCARSYGAFDYWGQGTTLTVSS
VL: DIVMTQSQKFMSTSVGDRVSITCKASQNVRTAVAWYQQKPGQSPKALIYLASNRHTGVPDRFTGSGSGTDFTLTISNVQSEDLADYFCLQHWNYPLTFGGGTKLEIK
notes: mouse monoclonal IgG2a, kappa; also called 182-D1106-279; DSM ACC2808

binding result (human CLD18A1 [6]): no binding
B8: ch-125E1 (antibody, V domains shown)
VH: B7 VH
VL: DIVMTQSQKFMSTSVGDRVSITCKASQNVRTAVAWYQQKPGQSPKALIYLASNRHTGVPDRFTGSGSGTDFTLTISNVQSEDLADYFCLQHWNYPLTFGGGTKLEIKR
notes: Mouse/human chimeric, human gamma-1 and kappa constant regions; also called chimeric 125E1
